Molecular target: branched-chain amino acid aminotransferase from Pseudomonas sp. (Pseudomonas sp.)
Assay: crystal structure

Question: Which stoichiometry N does the source give for “branched-chain amino acid aminotransferase from Pseudomonas sp. (enzyme)” here?
Answer: Its stoichiometry N is 2.
